Results from the RNAGym collection of RNA variant scans (doi:10.7554/elife.80360).

B1: Hairpin Ribozyme (parent)
chain: GUCCUCUUUCACGUGCGCGUGAAAGAGAGAAGUGAACCAGAGAAACACACGUUGUGGUAUAUUACCUGGUA

Variants of: B1
Assay: self-cleavage, relative activity (ratio to wild type); higher = more cleavage; co-transcriptional

Variant	self-cleavage
GUCCUCUUUCACGUGCGCGUGAAAGAGAGAAGUGAACCAGAGAAACAUACGUUGUGGUAUAUCACCUGGUA [C48U U63C]	0.19
GUCCUCUUUCACGUGCGCGUGAAAGAGAGAAGUGAACCAGAGAAACAUACGUUGUGGUAUAUGACCUGGUA [C48U U63G]	0.163
GUCCUCUUUCACGUGCGCGUGAAAGAGAGAAGUGAACCAGAGAAACAUACGUUGUGGUAUAUUACCAGGUA [C48U U67A]	0.119
GUCCUCUUUCACGUGCGCGUGAAAGAGAGAAGUGAACCAGAGAAACAUACGUUGUGGUAUAUUACCCGGUA [C48U U67C]	0.11
GUCCUCUUUCACGUGCGCGUGAAAGAGAGAAGUGAACCAGAGAAACAUACGUUGUGGUAUAUUACCUGGAA [C48U U70A]	0.152
GUCCUCUUUCACGUGCGCGUGAAAGAGAGAAGUGAACCAGAGAAACAUACGUUGUGGUAUAUUACCUGGGA [C48U U70G]	0.211
GUCCUCUUUCACGUGCGCGUGAAAGAGAGAAGUGAACCAGAGAAACACCCGUUGUGGUCUAUUACCUGGUA [A49C A59C]	0.168
GUCCUCUUUCACGUGCGCGUGAAAGAGAGAAGUGAACCAGAGAAACACCCGUUGUGGUGUAUUACCUGGUA [A49C A59G]	0.167
GUCCUCUUUCACGUGCGCGUGAAAGAGAGAAGUGAACCAGAGAAACACCCGUUGUGGUAUGUUACCUGGUA [A49C A61G]	0.172
GUCCUCUUUCACGUGCGCGUGAAAGAGAGAAGUGAACCAGAGAAACACCCGUUGUGGUAUAUUACCUGGUG [A49C A71G]	0.177
GUCCUCUUUCACGUGCGCGUGAAAGAGAGAAGUGAACCAGAGAAACACCUGUUGUGGUAUAUUACCUGGUA [A49C C50U]	0.122
GUCCUCUUUCACGUGCGCGUGAAAGAGAGAAGUGAACCAGAGAAACACCCGUUGUGGUAUAUUAUCUGGUA [A49C C65U]	0.08
GUCCUCUUUCACGUGCGCGUGAAAGAGAGAAGUGAACCAGAGAAACACCCCUUGUGGUAUAUUACCUGGUA [A49C G51C]	0.1
GUCCUCUUUCACGUGCGCGUGAAAGAGAGAAGUGAACCAGAGAAACACCCUUUGUGGUAUAUUACCUGGUA [A49C G51U]	0.0813
GUCCUCUUUCACGUGCGCGUGAAAGAGAGAAGUGAACCAGAGAAACACCCGUUAUGGUAUAUUACCUGGUA [A49C G54A]	0.235
GUCCUCUUUCACGUGCGCGUGAAAGAGAGAAGUGAACCAGAGAAACACCCGUUGUUGUAUAUUACCUGGUA [A49C G56U]	0.23
GUCCUCUUUCACGUGCGCGUGAAAGAGAGAAGUGAACCAGAGAAACACCCGUUGUGUUAUAUUACCUGGUA [A49C G57U]	0.0763
GUCCUCUUUCACGUGCGCGUGAAAGAGAGAAGUGAACCAGAGAAACACCCGUUGUGGUAUAUUACCUAGUA [A49C G68A]	0.164
GUCCUCUUUCACGUGCGCGUGAAAGAGAGAAGUGAACCAGAGAAACACCCGUUGUGGUAUAUUACCUCGUA [A49C G68C]	0.15

Variant	self-cleavage
GUCCUCUUUCACGUGCGCGUGAAAGAGAGAAGUGAACCAGAGAAACACCCGUUGUGGUAUAUUACCUUGUA [A49C G68U]	0.118
GUCCUCUUUCACGUGCGCGUGAAAGAGAGAAGUGAACCAGAGAAACACCCGUUGUGGUAUAUUACCUGCUA [A49C G69C]	0.241
GUCCUCUUUCACGUGCGCGUGAAAGAGAGAAGUGAACCAGAGAAACACCCGAUGUGGUAUAUUACCUGGUA [A49C U52A]	0.0356
GUCCUCUUUCACGUGCGCGUGAAAGAGAGAAGUGAACCAGAGAAACACCCGGUGUGGUAUAUUACCUGGUA [A49C U52G]	0.14
GUCCUCUUUCACGUGCGCGUGAAAGAGAGAAGUGAACCAGAGAAACACCCGUUGAGGUAUAUUACCUGGUA [A49C U55A]	0.164
GUCCUCUUUCACGUGCGCGUGAAAGAGAGAAGUGAACCAGAGAAACACCCGUUGUGGAAUAUUACCUGGUA [A49C U58A]	0.082
GUCCUCUUUCACGUGCGCGUGAAAGAGAGAAGUGAACCAGAGAAACACCCGUUGUGGUAUACUACCUGGUA [A49C U62C]	0.22
GUCCUCUUUCACGUGCGCGUGAAAGAGAGAAGUGAACCAGAGAAACACCCGUUGUGGUAUAUCACCUGGUA [A49C U63C]	0
GUCCUCUUUCACGUGCGCGUGAAAGAGAGAAGUGAACCAGAGAAACACGCGUUGUGGUUUAUUACCUGGUA [A49G A59U]	0.131
GUCCUCUUUCACGUGCGCGUGAAAGAGAGAAGUGAACCAGAGAAACACGCGUUGUGGUAUGUUACCUGGUA [A49G A61G]	0.211
GUCCUCUUUCACGUGCGCGUGAAAGAGAGAAGUGAACCAGAGAAACACGCGUUGUGGUAUUUUACCUGGUA [A49G A61U]	0.217
GUCCUCUUUCACGUGCGCGUGAAAGAGAGAAGUGAACCAGAGAAACACGCGUUGUGGUAUAUUACCUGGUC [A49G A71C]	1.18
GUCCUCUUUCACGUGCGCGUGAAAGAGAGAAGUGAACCAGAGAAACACGCGUUGUGGUAUAUUACCUGGUG [A49G A71G]	0.526
GUCCUCUUUCACGUGCGCGUGAAAGAGAGAAGUGAACCAGAGAAACACGCGUUGUGGUAUAUUACCUGGUU [A49G A71U]	0.397
GUCCUCUUUCACGUGCGCGUGAAAGAGAGAAGUGAACCAGAGAAACACGGGUUGUGGUAUAUUACCUGGUA [A49G C50G]	0.166
GUCCUCUUUCACGUGCGCGUGAAAGAGAGAAGUGAACCAGAGAAACACGCGUUGUGGUAUAUUACAUGGUA [A49G C66A]	0.302
GUCCUCUUUCACGUGCGCGUGAAAGAGAGAAGUGAACCAGAGAAACACGCGUUGUGGUAUAUUACGUGGUA [A49G C66G]	0.192
GUCCUCUUUCACGUGCGCGUGAAAGAGAGAAGUGAACCAGAGAAACACGCGUUGUUGUAUAUUACCUGGUA [A49G G56U]	0.261
GUCCUCUUUCACGUGCGCGUGAAAGAGAGAAGUGAACCAGAGAAACACGCGUUGUGGUAUAUUACCUAGUA [A49G G68A]	0.147
